Assay results: the Human Domainome abundance scans (Beltran et al. 2025)
± gives the uncertainty stated by the source.

B1: Zinc finger homeobox protein 4, residues 2086 to 2141; numbered along this chain, Q86UP3 (parent)
chain: RPRTRITDDQLKILRAYFDINNSPSEEQIQEMAEKSGLSQKVIKHWFRNTLFKERQ

Variants of: B1
Test: abundance fitness (aPCA) (normalised: wild type 0, dead -1); higher = more abundant; growth selection in yeast, the domain comes from the species named
Conditions: Homo sapiens

**Q.** With RPRTMITDDQLKILRAYFDINNSPSEEQIQEMAEKSGLSQKVIKHWFRNTLFKERQ [R5M] as the variant, how does the abundance fitness read?
**A.** 0.16 ± 0.094

**Q.** For RPRTRITDDQLKILRAYFDINNSPSEEQIQQMAEKSGLSQKVIKHWFRNTLFKERQ [E31Q], which abundance fitness is on record?
**A.** -0.005 ± 0.14

**Q.** Which abundance fitness does the source give for RPRTRITDSQLKILRAYFDINNSPSEEQIQEMAEKSGLSQKVIKHWFRNTLFKERQ [D9S] here?
**A.** 0.084 ± 0.065

**Q.** With RPRTRITDDQLKILRAYFDENNSPSEEQIQEMAEKSGLSQKVIKHWFRNTLFKERQ [I20E] as the variant, how does the abundance fitness read?
**A.** 0.015 ± 0.12

**Q.** Which abundance fitness does the source give for RPRTRITDDQLKILRAYFDINCSPSEEQIQEMAEKSGLSQKVIKHWFRNTLFKERQ [N22C] here?
**A.** -0.178 ± 0.29

**Q.** With RPRTRITDDQLKILRANFDINNSPSEEQIQEMAEKSGLSQKVIKHWFRNTLFKERQ [Y17N] as the variant, how does the abundance fitness read?
**A.** 0.041 ± 0.088

**Q.** For RPRTRIPDDQLKILRAYFDINNSPSEEQIQEMAEKSGLSQKVIKHWFRNTLFKERQ [T7P], which abundance fitness is on record?
**A.** -0.241 ± 0.1

**Q.** With RPRTRITDDQLKILRAYFDINNSPSEEQIQEMAEKEGLSQKVIKHWFRNTLFKERQ [S36E] as the variant, how does the abundance fitness read?
**A.** -0.244 ± 0.085

**Q.** With RPRTRITDDQLKILRAYFDINNSPSEEQIQEMAEKSGLSVKVIKHWFRNTLFKERQ [Q40V] as the variant, how does the abundance fitness read?
**A.** -0.098 ± 0.074

**Q.** With RPRTRITDDQLKILRAYFDINNSPSEEQIQEMPEKSGLSQKVIKHWFRNTLFKERQ [A33P] as the variant, how does the abundance fitness read?
**A.** -0.84 ± 0.19

**Q.** For RPRTRITDDQLKILRAYFDINNSPSEEQIQEMAYKSGLSQKVIKHWFRNTLFKERQ [E34Y], which abundance fitness is on record?
**A.** -0.502 ± 0.2

**Q.** Which abundance fitness does the source give for RPRTRITDDQLKILRAYFDINNSPSEEQIQEGAEKSGLSQKVIKHWFRNTLFKERQ [M32G] here?
**A.** -0.672 ± 0.07

**Q.** Which abundance fitness does the source give for RPRTRITDDQLKILRAYFDINNSPSEEQIQEMAEKSGLSQKVIKHWFRNWLFKERQ [T50W] here?
**A.** -0.109 ± 0.093

**Q.** With RPRTRITDDQLKILRAYFDINNSPSEEQIQEMAEKSGLSQKVIKHWFRNTLFKEMQ [R55M] as the variant, how does the abundance fitness read?
**A.** -0.198 ± 0.12

**Q.** Which abundance fitness does the source give for RPRTRITDDQLKILRAYFDINNSPSEEQIQEMAEKSGLSQKVIKHWFRNTLFWERQ [K53W] here?
**A.** -0.131 ± 0.093

**Q.** For RPRTRITDDQLKILRAYFDINNSPSEEEIQEMAEKSGLSQKVIKHWFRNTLFKERQ [Q28E], which abundance fitness is on record?
**A.** -0.155 ± 0.12

**Q.** With RPRTRITDDQLRILRAYFDINNSPSEEQIQEMAEKSGLSQKVIKHWFRNTLFKERQ [K12R] as the variant, how does the abundance fitness read?
**A.** -0.039 ± 0.065

**Q.** For RPRTRITDDQLKILRAYFDINNSPSYEQIQEMAEKSGLSQKVIKHWFRNTLFKERQ [E26Y], which abundance fitness is on record?
**A.** 0.048 ± 0.12

**Q.** For RPRTRITDDQLKILRAYFDINNSPSEEQIQEMAEKSGLSQKVIKHWFRNTLFKMRQ [E54M], which abundance fitness is on record?
**A.** -0.375 ± 0.13

**Q.** Which abundance fitness does the source give for RPRTRITDDQLKILRAYFDINNSPSEEQIQEMAEKSGLSQKVIKHWFRNTLFKERA [Q56A] here?
**A.** -0.646 ± 0.44

**Q.** Which abundance fitness does the source give for RPRTRITDDQLKILRAYFDINNSPSEIQIQEMAEKSGLSQKVIKHWFRNTLFKERQ [E27I] here?
**A.** -0.261 ± 0.38

**Q.** With RPRTRITDDQLKILRAQFDINNSPSEEQIQEMAEKSGLSQKVIKHWFRNTLFKERQ [Y17Q] as the variant, how does the abundance fitness read?
**A.** -0.089 ± 0.1

**Q.** Which abundance fitness does the source give for RPRTDITDDQLKILRAYFDINNSPSEEQIQEMAEKSGLSQKVIKHWFRNTLFKERQ [R5D] here?
**A.** 0.198 ± 0.081

**Q.** With RPYTRITDDQLKILRAYFDINNSPSEEQIQEMAEKSGLSQKVIKHWFRNTLFKERQ [R3Y] as the variant, how does the abundance fitness read?
**A.** 0.026 ± 0.12

**Q.** Which abundance fitness does the source give for RPRTRITDDQLKILRAYFDINNSPSEEQIQEMAEKSGLSQKVIKHWFRNTLFKEFQ [R55F] here?
**A.** -0.125 ± 0.26

**Q.** With RPRTRITDDQLKILRAYFDINNSPSEEQIQEMAEKSGLSQKVIKHWFRNTLFGERQ [K53G] as the variant, how does the abundance fitness read?
**A.** -0.071 ± 0.074

**Q.** Which abundance fitness does the source give for RPRTRIDDDQLKILRAYFDINNSPSEEQIQEMAEKSGLSQKVIKHWFRNTLFKERQ [T7D] here?
**A.** 0.174 ± 0.14

**Q.** For RPRTRIIDDQLKILRAYFDINNSPSEEQIQEMAEKSGLSQKVIKHWFRNTLFKERQ [T7I], which abundance fitness is on record?
**A.** -0.288 ± 0.081

**Q.** With RPRTRITDDQLKILRAYFDINNSPSEEQIQEMAEKPGLSQKVIKHWFRNTLFKERQ [S36P] as the variant, how does the abundance fitness read?
**A.** -0.874 ± 0.11

**Q.** Which abundance fitness does the source give for RPRTRITDDQWKILRAYFDINNSPSEEQIQEMAEKSGLSQKVIKHWFRNTLFKERQ [L11W] here?
**A.** -0.205 ± 0.077

**Q.** For RPRTRITDDELKILRAYFDINNSPSEEQIQEMAEKSGLSQKVIKHWFRNTLFKERQ [Q10E], which abundance fitness is on record?
**A.** -0.383 ± 0.092

**Q.** For RPRTRITDDQLKILRAYFDINNSPSEEQIQEMAEKSGLSQKVIKHWFRNTLFKEYQ [R55Y], which abundance fitness is on record?
**A.** -0.431 ± 0.16

**Q.** With RPRTRITDNQLKILRAYFDINNSPSEEQIQEMAEKSGLSQKVIKHWFRNTLFKERQ [D9N] as the variant, how does the abundance fitness read?
**A.** 0.047 ± 0.069

**Q.** For RPRTRITDDQLKILRAYFDINNSPSEEQIQEMAEKSGLSQKRIKHWFRNTLFKERQ [V42R], which abundance fitness is on record?
**A.** 0.086 ± 0.07

**Q.** Which abundance fitness does the source give for RPRTRIHDDQLKILRAYFDINNSPSEEQIQEMAEKSGLSQKVIKHWFRNTLFKERQ [T7H] here?
**A.** -0.344 ± 0.096

**Q.** With RPRTRITDDQLKILRAYFDINNSRSEEQIQEMAEKSGLSQKVIKHWFRNTLFKERQ [P24R] as the variant, how does the abundance fitness read?
**A.** -0.642 ± 0.11

**Q.** With RPRTRITDDQLKILRAYFDINNSPSEEQIQEMAEKSGWSQKVIKHWFRNTLFKERQ [L38W] as the variant, how does the abundance fitness read?
**A.** -0.666 ± 0.083

**Q.** Which abundance fitness does the source give for RPRTRITDDQLKILRPYFDINNSPSEEQIQEMAEKSGLSQKVIKHWFRNTLFKERQ [A16P] here?
**A.** -0.028 ± 0.082

**Q.** For RPRTRITDDQLKILRAYFDINNSPSEEQIQEMAEKSGLSQKAIKHWFRNTLFKERQ [V42A], which abundance fitness is on record?
**A.** 0.012 ± 0.08

**Q.** Which abundance fitness does the source give for RPRTRITDDQLKILRAYFDPNNSPSEEQIQEMAEKSGLSQKVIKHWFRNTLFKERQ [I20P] here?
**A.** 0.022 ± 0.11

**Q.** Which abundance fitness does the source give for RPRTRITDDQLKILRAYFDINNSPSEEQIQEMAEKSGLSQKVIKHWFRNTLFIERQ [K53I] here?
**A.** 0.141 ± 0.17

**Q.** With RPRTRITDDQLKILRAYFDINNSPSEEQIQEMAEKSGLSQKVIKHWFRNTLFKFRQ [E54F] as the variant, how does the abundance fitness read?
**A.** -0.231 ± 0.12

**Q.** With RPRTRITDDQLKILRAYFDINNSPSEMQIQEMAEKSGLSQKVIKHWFRNTLFKERQ [E27M] as the variant, how does the abundance fitness read?
**A.** 0.082 ± 0.21

**Q.** Which abundance fitness does the source give for RPRTRITDDQLKILRAYFCINNSPSEEQIQEMAEKSGLSQKVIKHWFRNTLFKERQ [D19C] here?
**A.** -0.072 ± 0.11

**Q.** With RPRTRITDDQLKILRAYFDINNSPSEEQIQEMAEKSGLSQKVSKHWFRNTLFKERQ [I43S] as the variant, how does the abundance fitness read?
**A.** -0.994 ± 0.11

**Q.** With RPRTRITDDQLKILRAYFDINNSPSEEQIGEMAEKSGLSQKVIKHWFRNTLFKERQ [Q30G] as the variant, how does the abundance fitness read?
**A.** -0.116 ± 0.079

**Q.** With RPRTRITDDQLKILRAYFDINNSPSEEQIQEMAEKSGLSQKVIKHWFRNTEFKERQ [L51E] as the variant, how does the abundance fitness read?
**A.** -0.127 ± 0.11
